Source: PMC8894380, “A multi-factor trafficking site on the spliceosome remodeling enzyme BRR2 recruits C9ORF78 to regulate alternative splicing” (Nature Communications, 2022)
Numbering of substitutions follows the chain as printed. Names and notes keep the numbering of the source. One block for each binder: values may come before it.

Tests used:
Details in all cases: both partners purified
[1] = target: T1, BRR2^HR-PRPF8^Jab1 complex (human, UniProt O75643 395-2129; Q6P2Q9 2064-2335); test: SEC; competition: BRR2^HR with equimolar PRPF8^Jab1 and FBP21^116-376 10 min on ice, then with or without equimolar GST-C9ORF78 for 10 min; analytical SEC as above
T1 construct: PRPF8, human, Jab1/MPN-like domain, residues 2064-2335; source: purified BRR2^HR and PRPF8^Jab1 mixed in equimolar amounts

[2] = target: T2, BRR2 helicase region (BRR2^HR, residues 395-2129) (human, UniProt O75643 395-2129); test: cryo-EM structure; complexes purified by SEC, 20 mM Tris-HCl pH 8.0, 150 mM NaCl, 1 mM DTT, 5 mg/ml, 0.15% n-octylglucoside; Titan Krios 300 kV
T2 construct: For the cryoEM complex with C9ORF78 the co-purified proteins were treated with TEV protease and recycled on Ni-NTA; also called His10-BRR2^HR; source: insect cells
T2 sequence (O75643 395-2129): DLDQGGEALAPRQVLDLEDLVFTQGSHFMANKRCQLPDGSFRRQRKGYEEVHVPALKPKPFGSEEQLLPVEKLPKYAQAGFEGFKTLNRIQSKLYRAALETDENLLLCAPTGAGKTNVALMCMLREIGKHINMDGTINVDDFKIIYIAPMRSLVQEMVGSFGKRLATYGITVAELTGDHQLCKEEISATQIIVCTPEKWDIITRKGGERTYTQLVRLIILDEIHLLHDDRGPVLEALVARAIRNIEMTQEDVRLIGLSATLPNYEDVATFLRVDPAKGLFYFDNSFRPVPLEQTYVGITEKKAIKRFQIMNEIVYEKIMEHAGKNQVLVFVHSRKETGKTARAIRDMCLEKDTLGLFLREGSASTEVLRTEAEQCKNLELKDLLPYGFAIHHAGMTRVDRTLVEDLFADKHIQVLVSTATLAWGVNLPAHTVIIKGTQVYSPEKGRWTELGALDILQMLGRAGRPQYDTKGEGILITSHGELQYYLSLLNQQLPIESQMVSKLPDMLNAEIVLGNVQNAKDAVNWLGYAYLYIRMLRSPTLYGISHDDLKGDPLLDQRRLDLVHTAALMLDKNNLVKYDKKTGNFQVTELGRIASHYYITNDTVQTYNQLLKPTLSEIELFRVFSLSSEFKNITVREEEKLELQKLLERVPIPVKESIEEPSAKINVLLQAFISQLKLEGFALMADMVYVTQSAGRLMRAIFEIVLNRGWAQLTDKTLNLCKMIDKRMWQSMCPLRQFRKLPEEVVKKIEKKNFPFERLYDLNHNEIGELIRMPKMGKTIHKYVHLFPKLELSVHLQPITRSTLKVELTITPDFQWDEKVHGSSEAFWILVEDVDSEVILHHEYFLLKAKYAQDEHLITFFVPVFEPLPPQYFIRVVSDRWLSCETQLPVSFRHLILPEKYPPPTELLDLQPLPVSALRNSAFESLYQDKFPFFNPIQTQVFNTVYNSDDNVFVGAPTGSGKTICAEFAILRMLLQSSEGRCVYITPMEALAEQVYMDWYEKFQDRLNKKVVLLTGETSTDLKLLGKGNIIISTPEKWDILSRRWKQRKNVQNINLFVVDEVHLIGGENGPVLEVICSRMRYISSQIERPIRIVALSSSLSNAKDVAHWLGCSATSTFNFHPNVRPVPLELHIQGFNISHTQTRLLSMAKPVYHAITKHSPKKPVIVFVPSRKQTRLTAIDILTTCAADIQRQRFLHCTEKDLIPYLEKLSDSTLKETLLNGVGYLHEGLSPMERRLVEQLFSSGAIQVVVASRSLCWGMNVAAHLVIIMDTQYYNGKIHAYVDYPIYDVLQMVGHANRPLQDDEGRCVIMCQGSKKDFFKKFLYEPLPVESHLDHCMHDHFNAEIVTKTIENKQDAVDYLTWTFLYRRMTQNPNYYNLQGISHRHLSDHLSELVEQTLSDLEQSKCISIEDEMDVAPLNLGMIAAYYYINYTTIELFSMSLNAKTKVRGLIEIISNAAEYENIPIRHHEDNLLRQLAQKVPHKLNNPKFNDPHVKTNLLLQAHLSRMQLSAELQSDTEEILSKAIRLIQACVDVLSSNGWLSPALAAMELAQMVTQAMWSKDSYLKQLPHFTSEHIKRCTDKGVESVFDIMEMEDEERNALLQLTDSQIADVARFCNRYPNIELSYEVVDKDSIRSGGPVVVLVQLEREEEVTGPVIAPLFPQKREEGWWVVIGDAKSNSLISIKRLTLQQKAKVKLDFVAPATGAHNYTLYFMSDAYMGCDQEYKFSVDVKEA

[3] = target: T3, full-length BRR2 (BRR2^FL) (human, UniProt O75643 1-2136); test: SEC; analytical SEC, Superdex 200 increase 3.2/300, 20 mM Tris-HCl pH 8.0, 200 mM NaCl, 1 mM DTT; 75 ug BRR2 construct or PRPF8^Jab1 with 1.5-fold molar excess of partner, pre-incubated 10 min on ice; fractions by SDS-PAGE
T3 construct: BRR2 (SNRNP200), human, full length; The His10 tag is named only for the peptide SPOT array; also called His10-BRR2^FL; SNRNP200

[4] = target: T2, BRR2 helicase region (BRR2^HR, residues …); test: as above
[5] = target: T4, BRR2 C-terminal cassette (BRR2^CC, residues 1282-2136) (human, UniProt O75643 1282-2136); test: as above
T4 construct: BRR2 (SNRNP200), human, C-terminal helicase cassette, residues 1282-2136; The His10 tag is named only for the peptide SPOT array; also called His10-BRR2^CC
T4 sequence (looked up): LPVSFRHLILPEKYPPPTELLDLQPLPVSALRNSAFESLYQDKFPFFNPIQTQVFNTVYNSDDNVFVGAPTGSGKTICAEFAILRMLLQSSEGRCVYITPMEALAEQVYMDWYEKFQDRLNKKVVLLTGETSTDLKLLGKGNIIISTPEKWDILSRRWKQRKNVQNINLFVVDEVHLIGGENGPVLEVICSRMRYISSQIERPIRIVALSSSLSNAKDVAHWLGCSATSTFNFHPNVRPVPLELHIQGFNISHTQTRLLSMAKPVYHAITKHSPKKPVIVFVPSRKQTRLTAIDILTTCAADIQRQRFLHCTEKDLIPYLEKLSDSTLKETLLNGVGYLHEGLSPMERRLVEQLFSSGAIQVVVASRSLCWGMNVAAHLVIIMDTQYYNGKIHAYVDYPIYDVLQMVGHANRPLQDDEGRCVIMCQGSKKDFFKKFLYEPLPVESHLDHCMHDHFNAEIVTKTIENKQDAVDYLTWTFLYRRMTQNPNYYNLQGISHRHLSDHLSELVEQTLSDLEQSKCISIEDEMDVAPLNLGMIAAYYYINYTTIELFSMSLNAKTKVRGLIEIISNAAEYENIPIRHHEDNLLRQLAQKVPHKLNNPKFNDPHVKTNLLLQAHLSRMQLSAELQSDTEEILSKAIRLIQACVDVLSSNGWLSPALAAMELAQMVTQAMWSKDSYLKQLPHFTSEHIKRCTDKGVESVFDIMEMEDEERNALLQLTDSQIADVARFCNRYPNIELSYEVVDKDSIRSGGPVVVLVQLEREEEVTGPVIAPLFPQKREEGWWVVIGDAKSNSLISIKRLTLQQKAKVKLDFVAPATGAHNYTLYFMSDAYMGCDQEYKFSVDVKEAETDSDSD

binding result [2]: binds
B2: FBP21^200-376 (domain or fragment, human, UniProt O75554 200-376, looked up)
chain: HTSDLPSSKVNENSLGTLDESKSSDSHSDSDGEQEAEEGGVSTETEKPKIKFKEKNKNSDGGSDPETQKEKSIQKQNSLGSNEEKSKTLKKSNPYGEWQEIKQEVESHEEVDLELPSTENEYVSTSEADGGGEPKVVFKEKTVTSLGVMADGVAPVFKKRRTENGKSRNLRQRGDDQ

binding result [4]: binds
B5: GST-C9ORF78^F8A (natural protein, human)
chain: MPVVRKIARRRRGDSESEEDEQDSEEVRLKLEETREVQNLRKRPNGVSAVALLVGEKVQEETTLVDDPFQMKTGGMVDMKKLKERGKDKISEEEDLHLGTSFSAETNRRDEDADMMKYIETELKKRKGIVEHEEQKVKPKNAEDCLYELPENIRVSSAKKTEEMLSNQMLSGIPEVDLGIDAKIKNIISTEDAKARLLAEQQNKKKDSETSFVPTNMAVNYVQHNRFYHEELNAPIRRNKEEPKARPLRVGDTEKPEPERSPPNRKRPANEKATDDYHYEKFKKMNRRY
notes: C9ORF78, human, with F8A; source: E. coli BL21 RIL (pETM30), purified (Glutathione Sepharose, SEC); not shown: His6, N-terminal, kept; GST, N-terminal, kept

binding result [4]: binds
B6: PRPF8 Jab1 domain (PRPF8^Jab1; residues 2064-2335) (domain or fragment)
chain: not shown
notes: PRPF8, human, Jab1/MPN-like domain, residues 2064-2335; also called Jab1/MPN-like domain

The remaining lines, values behind:

B1: FBP21^116-376 (domain or fragment, human, UniProt O75554 116-376, looked up)
chain: KKKRKKDPSKGRWVEGITSEGYHYYYDLISGASQWEKPEGFQGDLKKTAVKTVWVEGLSEDGFTYYYNTETGESRWEKPDDFIPHTSDLPSSKVNENSLGTLDESKSSDSHSDSDGEQEAEEGGVSTETEKPKIKFKEKNKNSDGGSDPETQKEKSIQKQNSLGSNEEKSKTLKKSNPYGEWQEIKQEVESHEEVDLELPSTENEYVSTSEADGGGEPKVVFKEKTVTSLGVMADGVAPVFKKRRTENGKSRNLRQRGDDQ
binding result [1]: binds

B3: His6-GST-C9ORF78 (natural protein, human)
chain: B5 chain with A8F
notes: C9ORF78, human, 34 kDa; Tag cleavage led to degradation and was omitted for functional analyses in vitro; also called GST-C9ORF78^wt; source: E. coli BL21 RIL (pETM30), purified (Glutathione Sepharose, SEC); not shown: His6, N-terminal, kept; GST, N-terminal, kept
binding result [3]: binds
binding result [4]: binds
binding result [5]: binds
binding result [1]: binds

B4: C9ORF78 (His6/GST tag cleaved, co-purified with BRR2^HR) (natural protein, human)
chain: B5 chain with A8F
notes: C9ORF78, human; the four N-terminal and 231 C-terminal residues not located in the map; 4 + 54 + 231 residues add up to 289, the length that I recall for the whole protein; not shown: His6, N-terminal, cleaved; GST, N-terminal, cleaved
binding result [2]: binds
